# Assay results: IntAct's records for PubMed 19829382
# B1: Scaffold protein ILK (Mus musculus), O55222 (parent)
# chain: MDDIFTQCREGNAVAVRLWLDNTENDLNQGDDHGFSPLHWACREGRSAVVEMLIMRGARINVMNRGDDTPLHLAASHGHRDIVQKLLQYKADINAVNEHGNVPLHYACFWGQDQVAEDLVANGALVSICNKYGEMPVDKAKAPLRELLRERAEKMGQNLNRIPYKDTFWKGTTRTRPRNGTLNKHSGIDFKQLNFLAKLNENHSGELWKGRWQGNDIVVKVLKVRDWSTRKSRDFNEECPRLRIFSHPNVLPVLGACQAPPAPHPTLITHWMPYGSLYNVLHEGTNFVVDQSQAVKFALDMARGMAFLHTLEPLIPRHALNSRSVMIDEDMTARISMADVKFSFQCPGRMYAPAWVAPEALQKKPEDTNRRSADMWSFAVLLWELVTREVPFADLSNMEIGMKVALEGLRPTIPPGISPHVCKLMKICMNEDPAKRPKFDMIVPILEKMQDK
# partner: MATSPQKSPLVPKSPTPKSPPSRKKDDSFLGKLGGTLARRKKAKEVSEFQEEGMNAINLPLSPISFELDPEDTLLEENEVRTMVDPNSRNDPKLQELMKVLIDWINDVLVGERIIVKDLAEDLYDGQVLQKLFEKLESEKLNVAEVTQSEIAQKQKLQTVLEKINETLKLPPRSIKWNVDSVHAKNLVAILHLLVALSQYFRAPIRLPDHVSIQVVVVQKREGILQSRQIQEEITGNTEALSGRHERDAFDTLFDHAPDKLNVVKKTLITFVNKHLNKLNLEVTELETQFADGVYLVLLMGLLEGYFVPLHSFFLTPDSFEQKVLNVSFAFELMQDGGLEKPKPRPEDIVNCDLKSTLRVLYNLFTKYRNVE
# Variants of: B1
# Conditions: with parva_mouse Parva
row,effect of a mutation on the interaction,Variant
1,decreasing interaction strength,MDDIFTQCREGNAVAVRLWLDNTENDLNQGDDHGFSPLHWACREGRSAVVEMLIMRGARINVMNRGDDTPLHLAASHGHRDIVQKLLQYKADINAVNEHGNVPLHYACFWGQDQVAEDLVANGALVSICNKYGEMPVDKAKAPLRELLRERAEKMGQNLNRIPYKDTFWKGTTRTRPRNGTLNKHSGIDFKQLNFLAKLNENHSGELWKGRWQGNDIVVAVLKVRDWSTRKSRDFNEECPRLRIFSHPNVLPVLGACQAPPAPHPTLITHWMPYGSLYNVLHEGTNFVVDQSQAVKFALDMARGMAFLHTLEPLIPRHALNSRSVMIDEDMTARISMADVKFSFQCPGRMYAPAWVAPEALQKKPEDTNRRSADMWSFAVLLWELVTREVPFADLSNMEIGMKVALEGLRPTIPPGISPHVCKLMKICMNEDPAKRPKFDMIVPILEKMQDK [K220A]
2,decreasing interaction strength,MDDIFTQCREGNAVAVRLWLDNTENDLNQGDDHGFSPLHWACREGRSAVVEMLIMRGARINVMNRGDDTPLHLAASHGHRDIVQKLLQYKADINAVNEHGNVPLHYACFWGQDQVAEDLVANGALVSICNKYGEMPVDKAKAPLRELLRERAEKMGQNLNRIPYKDTFWKGTTRTRPRNGTLNKHSGIDFKQLNFLAKLNENHSGELWKGRWQGNDIVVMVLKVRDWSTRKSRDFNEECPRLRIFSHPNVLPVLGACQAPPAPHPTLITHWMPYGSLYNVLHEGTNFVVDQSQAVKFALDMARGMAFLHTLEPLIPRHALNSRSVMIDEDMTARISMADVKFSFQCPGRMYAPAWVAPEALQKKPEDTNRRSADMWSFAVLLWELVTREVPFADLSNMEIGMKVALEGLRPTIPPGISPHVCKLMKICMNEDPAKRPKFDMIVPILEKMQDK [K220M]
